In patent US20160130333A1 (published 2016):
Each block holds one binder with its values, some of them ahead of it.

Target: histones
Test: ELISA

- Kd: 6.6 nM
B1: mIMMU-H4 (antibody, V domains shown)
VH: QVQLQQSGAELVRPGASVKLSCTASGFNIKDDYLHWVKQRPEQGLEWIGWIDPENGDTEYASKFQGKATITADTSSNTAYLQLSSLTSEDTAVYYCSSPLVHLRTFAYWGQGTLVTVS
VL: DIQLTQSPASLAVSLGQRATISCRASESVDSYDNSLHWFQQKPGQPPKLLIYLASNLESGVPARFSGSGSRTDFTLTIDPVEADDAATYYCQQNNEDPWTFGGGTKLEIKR

- Kd: 0.96 nM
B2: cIMMU-H4 (antibody, V domains shown)
VH: QVQLQQSGAELVRPGASVKLSCTASGFNIKDDYLHWVKQRPEQGLEWIGWIDPENGDTEYASKFQGKATITADTSSNTAYLQLSSLTSEDTAVYYCSSPLVHLRTFAYWGQGTLVTVSA
VL: B1 VL
